According to patent US20230295276A1:

Experiments:
[1] = biological target: lysate of porcine coronavirus; assay: ELISA Test 1, coated viral lysate, antibody 1:4000, Group 1
[2] = biological target: lysate of porcine pseudorabies virus; assay: as above
[3] = biological target: lysate of porcine coronavirus; assay: ELISA Test 1, coated viral lysate, antibody 1:4000, Group 2
[4] = biological target: lysate of porcine pseudorabies virus; assay: as above
[5] = biological target: lysate of porcine coronavirus; assay: ELISA Test 2, coated viral lysate, antibody 1:4000, secondary antibody 1:2000

B1: anti-PRRSV antibody 572 (antibody, V domains shown)
VH: EVQLQQSGPELVKPGASVKISCKASGFSFTGYYMHWVKQSHVKSLEWIGRIYPYTDSTIYNQNFKDKAGLTVDKSSSTAYMELHSLTSEDSAVYYCARDNGYADYAMDYWGQGTSVTVSS
VL: DIVMTQSPSSLSAFLGDSITITCHASQNIHVWLSWYQQKPGNIPKLLIYKASNLHTGVPSRFSGSGSGTGFTLTISSLQPEDIGTYYCQQGQSYPLTFGAGTKLELK
Q: Which results are given for B1?
A: OD450 [1]: 0.322 OD450; OD450 [2]: 0.091 OD450; OD450 [3]: 0.312 OD450; OD450 [4]: 0.1 OD450; OD450 [5]: 0.782 OD450
